Target: the molecule itself
Assay: cryo-EM structure; single-particle cryo-EM map at 4.1 Å with tetrahedral symmetry imposed, refined jointly with MAS NMR and solution-NMR restraints (XPLOR-NIH, full dodecamer)

B1: aminopeptidase TET2 from Pyrococcus horikoshii (enzyme)
chain: MEVRNMVDYELLKKVVEAPGVSGYEFLGIRDVVIEEIKDYVDEVKVDKLGNVIAHKKGEGPKVMIAAHMDQIGLMVTHIEKNGFLRVAPIGGVDPKTLIAQRFKVWIDKGKFIYGVGASVPPHIQKPEDRKKAPDWDQIFIDIGAESKEEAEDMGVKIGTVITWDGRLERLGKHRFVSIAFDDRIAVYTILEVAKQLKDAKADVYFVATVQEEVGLRGARTSAFGIEPDYGFAIDVTIAADIPGTPEHKQVTHLGKGTAIKIMDRSVICHPTIVRWLEELAKKHEIPYQLEILLGGGTDAGAIHLTKAGVPTGALSVPARYIHSNTEVVDERDVDATVELMTKALENIHELKI
notes: TET2 aminopeptidase, Pyrococcus horikoshii, UniProt O59196; 353 residues (39 kDa) per subunit as printed; Dodecamer of 12 x 39 kDa (468 kDa), with two zinc ions in each active site; Samples carried various isotope labels (2H, 13C, 15N, methyl labelling); the cryo-EM sample was u-[2H,13C,15N]-labelled; No tag is mentioned; source: E. coli BL21(DE3), purified (heating to 85 °C, Resource Q, size …)
B1 was tested, and the “stoichiometry N” value was 12.

— PMC6584647, “Integrated NMR and cryo-EM atomic-resolution structure determination of a half-megadalton enzyme complex” (Nature Communications, 2019)
